Reference: patent US20240199758A1, “METHOD FOR ALLOWING IMMUNE CELLS INFILTRATION IN TUMORS” (Alethia Biotherapeutics Inc., priority 2021, published 2024)
“And” between values parts separate entries of the source, which are not always exact repeats. Identical values can stand only once. “Also recorded” adds a separate entry of the source.

B1: murine 16B5: murine anti-clusterin (anti-sCLU) monoclonal antibody 16B5 used in the mouse studies; VL SEQ ID NO:7, VH SEQ ID NO:8 (antibody, V domains shown)
VH: EVQLQQSGAELVKPGASVRLSCTTSGFNIKDIYMHWVKQRPEQGLEWIGRIDPAYGNTKYDPKFQGKATITADTSSNTAYLQLSSLTSEDTAVYYCARRYDTAMDYWGQGTSVTVSS
VL: DIVMSQSPSSLAVSAGEKVTMSCKSSQSLLNSRTRKNYLAWYQQKPGQSPKLLIYWASTRESGVPDRFTGSGSGTDFTLTISSVQAEDLAVYYCKQSYNLWTFGGGTKLEFK
modifications: Murine 16B5 VH; Murine 16B5 VL

Tests used:
Assay type in all cases: in vivo, Balb/c mice
[1] = system: 4T1 mouse mammary carcinoma cells; experiment: 4T1 model: number of metastatic lung nodules; settings: Day 37
Experimental: (§1) Five groups, each consisting of 10 female Balb/c mice were assigned to this study (see Table 5 below). All animals received subcutaneous implantation of 4T1 mouse mammary carcinoma cells in the 4th inguinal mammary gland. Treatment was initiated on the day of implantation (defined as Day 1). Animals from Group 1 (Gr. 1) received IP treatment of saline vehicle control twice a week for the duration of the study. Animals from Group 2 (Gr. 2) received 10 mg/kg of docetaxel weekly for five weeks by IP administration. Animals from Group 3 (Gr. 3) received 10 mg/kg of docetaxel weekly for two weeks and 10 mg/kg of AB-16B5, twice weekly for five weeks. Animals from Group 4 (Gr. 4) received 10 mg/kg of docetaxel weekly and 5 mg/kg of 16B5 twice weekly each over the course of a five weeks treatment. Animals from Group 5 (Gr. 5) received AB-16B5 twice weekly for five weeks. On Day 36, the primary tumors were excised and on Day 37, the animals were sacrificed and the number of grossly visible metastatic nodules on the surface of the lungs was counted.

4T1 primary tumors = experiment: 4T1 model: CD45+ immune cells in primary tumors
Experimental: as §1
The primary tumors excised at Day 16 post implantation, were processed with collagenase and hyaluronidase and immune cells were purified by positive selection using magnetic latex beads coated with an anti-CD45 antibody. […]

4T1 lung metastases [2] = experiment: Flow cytometry immunophenotyping of lymphocytes from 4T1 lung metastases; settings: Day 36 post-implantation, FIG. 4A and FIG. 4B
Experimental: (§2) Balb/c mice were orthotopically implanted with 5×10^5 4T1 cells in the 4′ mammary fat pad. Animals received intraperitoneal (IP) AB-16B5 (murine 16B5) 10 mg/kg twice weekly in combination with IP docetaxel 10 mg/kg weekly (Group 15: animals 1501, 1502 and 1503) or IP AB-16B5 10 mg/kg twice weekly (Group 25: […]). The primary tumor was surgically removed at Day 16 post-implantation. The animals were sacrificed at Day 36 and the lungs were excised and each visible lung metastasis was carefully dissected. Each visible metastatic nodule, if any, was excised and processed for a rapid expansion of tumor infiltrating lymphocyte protocol. The metastatic nodules were sectioned into small pieces of 2-3 mm edge that were individually grown in 24 well plates containing culture medium supplemented with FBS, IL2, IL7, ITS (1,000 U/mL IL2, 2.0 ng/mL IL7 and 1× insulin—transferrin—selenium cocktail (Gibco 41400-045)).
The lymphocytes were stimulated with anti-CD3 and anti-CD28 monoclonal antibodies. Lymphocytes from each donor animal were pooled and processed for flow cytometry analysis with antibodies against CD45 (lymphocyte common antigen), CD3, CD4, CD8 and CD19 (B-cell biomarker) (FIG. 4A and FIG. 4B). The resulting single cell preparations were initially selected on their size to select those corresponding to immune cells. […]

4T1 lung metastases [3] = experiment: 4T1 orthotopic model: immunohistochemistry of lung metastases
Description: Balb/c mice were orthotopically implanted with 5×10^5 4T1 cells in the 4′ mammary fat pad. Animals received IP saline treatment thrice weekly. The primary tumor was surgically removed at Day 16 post-implantation. The animals were sacrificed at Day 36 and the lungs were excised. Tissues were fixed in paraformaldehyde and processed for paraffin embedding. Tissue sections were probed with anti-mouse CD3, anti-mouse CD8 and anti-mouse B220 antibodies. […] Results presented in FIG. 1 indicate that the 4T1 lung metastases create an immune cold microenvironment which prevents the infiltration of B and T lymphocytes in tumors. Delineated regions indicate that CD3 and CD8 T lymphocytes are restricted in the tumor margin as a consequence of EMT.
Animals bearing 4T1 tumors were treated with the AB-16B5 antibody (murine 16B5) thrice a week IP at 10 mg/kg. The primary tumor was surgically removed at Day 16 post-implantation. The animals were sacrificed at Day 36 and the lungs were excised. Tissues were fixed in paraformaldehyde and processed for paraffin embedding. Tissue sections were probed with anti-mouse CD3, anti-mouse CD8 and anti-mouse B220 antibodies.

4T1 tumor cells = experiment: INFγ secretion of tumor infiltrating lymphocytes co-cultured with 4T1 cells (ELISA)
Experimental: as §2
After three weeks in culture, 100,000 cells were taken from each of the lymphocyte cultures (six cultures corresponding to three animals from Group 15 and three animals from Group 25) and placed in culture with 100,000 4T1 tumor cells. After overnight co-culture, the supernatant was recovered for INFγ quantification by ELISA.

[4] = 10 mg/kg IP thrice a week, Day 36

| Molecule | metastatic lung nodules ([1]; Group 2: docetaxel 10 mg/kg IP 1X/week for 5 weeks) | CD45+ immune cells in primary tumors (4T1 primary tumors; Group 2: docetaxel 10 mg/kg IP 1X/week) | infiltration of 4T1 lung metastases by B and T lymphocytes (4T1 lung metastases [2]) | metastatic lung nodules ([1]; Group 5: AB-16B5 10 mg/kg IP 2X/week for 5 weeks) | infiltration of lung metastases with CD3 and CD8 T cells (4T1 lung metastases [3]; [4]) | plasmocytes penetration in tumors (4T1 lung metastases [3]; [4]) | lung metastases, number and size (4T1 lung metastases [3]; 10 mg/kg IP thrice a week, primary tumor removed Day 16, sacrifice Day 36) | B and T lymphocytes infiltration in 4T1 lung metastases (4T1 lung metastases [3]; FIG. 2A) | INFγ (4T1 tumor cells; Group 25 (samples 2501-2503, one value per animal): AB-16B5 10 mg/kg IP twice weekly, overnight co-culture with 4T1 cells) | INFγ secretion level of lymphocytes isolated from lung metastatic nodules (4T1 tumor cells; in the presence of 4T1 cells) | CD45+ immune cells in primary tumors (4T1 primary tumors; Group 5: AB-16B5 10 mg/kg IP 2X/week) |
| --- | --- | --- | --- | --- | --- | --- | --- | --- | --- | --- | --- |
| CC(=O)O[C@@]12CO[C@@H]1C[C@H](O)[C@@]1(C)C(=O)[C@H](O)C3=C(C)[C@@H](OC(=O)[C@H](O)[C@@H](NC(=O)OC(C)(C)C)c4ccccc4)C[C@@](O)([C@@H](OC(=O)c4ccccc4)[C@H]21)C3(C)C [docetaxel] | as many metastatic lung nodules as the saline control group; also recorded: relatively ineffective | very few CD45+ were present | – | – | – | – | – | – | – | – | – |
| B1 | – | – | infiltrated by B and T lymphocytes | less metastatic lung nodules than the saline-control-treated mice | densely infiltrated with CD3 and CD8 T cells | evidence of plasmocytes penetration | fewer and much smaller lung metastases | Results in B (B220) and T (CD3, CD4, CD8) Lymphocytes Infiltration | 8538.8 pg/mL and 3770.0 pg/mL and 4538.8 pg/mL | high levels | more immune cells |
